# Reference: patent US20250215101A1, “DR5 Agonist and PLK1 Inhibitor or CDK Inhibitor Combination Therapy” (Inhibrx Biosciences, Inc., priority 2022, published 2025)
# B1: INBRX-109: DR5-binding polypeptide consisting of SEQ ID NO: 7 (two VHH domains and an Fc region); DR5 agonist (protein)
# chain: EVQLLESGGGEVQPGGSLRLSCAASGLTFPNYGMGWFRQAPGKEREFVSAIYWSGGTVYYAESVKGRFTISRDNAKNTLYLQMSSLRAEDTAVYYCAVTIRGAATQTWKYDYWGQGTLVTVKPGGSGGSEVQLLESGGGEVQPGGSLRLSCAASGLTFPNYGMGWFRQAPGKEREFVSAIYWSGGTVYYAESVKGRFTISRDNAKNTLYLQMSSLRAEDTAVYYCAVTIRGAATQTWKYDYWGQGTLVTVKPGGGGDKTHTCPPCPAPGGPSVFLFPPKPKDTLMISRTPEVTCVVVDVSHEDPEVKFNWYVDGVEVHNAKTKPREEQYNSTYRVVSVLTVLHQDWLNGKEYKCKVSNKALPAPIEKTISKAKGQPREPQVYTLPPSRDELTKNQVSLTCLVKGFYPSDIAVEWESNGQPENNYKTTPPVLDSDGSFFLYSKLTVDKSRWQQGNVFSCSVMHEALHNHYTQKSLSLSPGK
# modifications: INBRX-109
# notes: DR5 agonist
# Columns and labels:
# HT-29 = assay: Cell viability (CellTiter-Glo) cytotoxicity assay, INBRX-109 x onvansertib matrix, 48 h; type: cell-based; details: HT-29
# Method: (§1) Monolayer cultures of each cell line were harvested for compound screening as detailed below.
# (§2) Onvansertib: A 10 mg stock of onvansertib was purchased from Selleck Chemicals and was resuspended to 10 mM in DMSO. This was then aliquoted and stored at −80° C. Aliquots were thawed immediately prior to dilution and use in the assay. A 500× master plate of serial dilutions (6-point 5-fold dilutions in 100% DMSO starting at 500 μM, plus a DMSO only control) was prepared and mixed gently with a pipette. To generate a 5× working dilution plate of onvansertib, a 1:100 dilution was performed from the 500× plate into complete media (EMEM).
# (§3) Also on day 2, test and control articles were added.
# (§4) On day 4, viability measurements were taken. […] Data was graphed in GraphPad Prism 9.
# LS174T = assay: as above; type: cell-based
# Method: as §1, §2, §3, §4
# LS411N = assay: as above; type: cell-based
# Method: as §1, §2, §3, §4
# SW1463 = assay: as above; type: cell-based; details: SW1463
# Method: as §1, §2, §3, §4
# SW620 = assay: as above; type: cell-based; details: SW620; INBRX-109 only (Table 1)
# Method: as §1, §2, §3, §4
# SW837 = assay: as above; type: cell-based; details: SW837
# Method: as §1, §2, §3, §4
# AsPC-1 = assay: Cytotoxicity assay, pancreatic cell line panel, onvansertib +/- 1 nM INBRX-109; type: cell-based; details: AsPC-1; 1 nM INBRX-109 only
# Method: as §1, §3, §4
# (§5) The results for a panel of colorectal cancer cell lines are shown in Table 3 and FIGS. 4-6, and the results for a panel of pancreatic cell lines are shown in Table 4 and FIGS. 7 and 8.
# BxPC-3 = assay: as above; type: cell-based; details: BxPC-3; 1 nM INBRX-109 only
# Method: as §1, §3, §4, §5
# CFPAC-1 = assay: as above; type: cell-based; details: CFPAC-1; 1 nM INBRX-109 only
# Method: as §1, §3, §4, §5
# Capan-1 = assay: as above; type: cell-based; details: Capan-1; 1 nM INBRX-109 only
# Method: as §1, §3, §4, §5
# Capan-2 = assay: as above; type: cell-based; details: Capan-2; 1 nM INBRX-109 only
# Method: as §1, §3, §4, §5
# HPAF-II = assay: as above; type: cell-based; details: 1 nM INBRX-109 only
# Method: as §1, §3, §4, §5
# HuP-T4 = assay: as above; type: cell-based; details: HuP-T4; 1 nM INBRX-109 only
# Method: as §1, §3, §4, §5
# KP4 = assay: as above; type: cell-based; details: KP4; 1 nM INBRX-109 only
# Method: as §1, §3, §4, §5
# MIA PaCa-2 = assay: as above; type: cell-based; details: MIA PaCa-2; 1 nM INBRX-109 only
# Method: as §1, §3, §4, §5
# PANC-1 = assay: as above; type: cell-based; details: PANC-1; 1 nM INBRX-109 only
# Method: as §1, §3, §4, §5
# PL45 = assay: as above; type: cell-based; details: PL45; 1 nM INBRX-109 only
# Method: as §1, §3, §4, §5
# PSN-1 = assay: as above; type: cell-based; details: PSN-1; 1 nM INBRX-109 only
# Method: as §1, §3, §4, §5
# Panc 03.27 = assay: as above; type: cell-based; details: Panc 03.27; 1 nM INBRX-109 only
# Method: as §1, §3, §4, §5
# Panc 05.04 = assay: as above; type: cell-based; details: Panc 05.04; 1 nM INBRX-109 only
# Method: as §1, §3, §4, §5
# Panc 10.05 = assay: as above; type: cell-based; details: Panc 10.05; 1 nM INBRX-109 only
# Method: as §1, §3, §4, §5
# SU.86.86 = assay: as above; type: cell-based; details: SU.86.86; 1 nM INBRX-109 only
# Method: as §1, §3, §4, §5
# SW-1990 = assay: as above; type: cell-based; details: SW-1990; 1 nM INBRX-109 only
# Method: as §1, §3, §4, §5
# CAL-78 = assay: Cell viability (CellTiter-Glo) cytotoxicity assay, INBRX-109 x CDK9 or MCL-1 inhibitor matrix, 48 h, chondrosarcoma line
# Method: On day 1, cells were seeded as follows. Monolayer cultures of each cell line (chondrosarcoma: CAL-78, OUMS-27, SW1353, and H-EMC-SS; colorectal cancer: SW620; and synovial sarcoma: HS-SY-II) were harvested for compound screening. Culture medium was aspirated, and the cells were washed once with PBS. Accutase was added and flasks were incubated at 37° C. until cells became detached. An equal volume of complete medium was added to quench the Accutase, and the cells were then pipetted up and down several times to generate a homogenous single cell suspension. The density and viability of cells was determined by Trypan Blue using a TC20 Automated Cell Counter. Experimental cells were resuspended to a concentration of 0.17×10^6/mL in Eagle's Minimum Essential Medium (EMEM)/10% FBS/Anti-Anti media (complete EMEM) and seeded in the inner wells of 384-well luminescence plates at 15 mL/well (2,500/well final). Each cell line was plated in duplicate on separate plates. Outer wells were filled with 50 mL PBS, then plates were incubated in a humidified temperature-controlled 37° C. tissue culture incubator at 5% CO2 overnight for 16 hours.
# These test articles were added, in duplicate, to each cell line. The plates were then centrifuged at 400×g for 1 minute, then incubated in a 37° C. humidity-controlled tissue culture incubator (5% CO2) for 48 hours.
# After incubation with the test articles, viability measurements were taken, briefly. Plates were equilibrated to room temperature for 10 minutes, then 25 μL of CellTiter-Glo 2.0® was added to each well. Plates were spun for 1 minute at 400×g, then covered and incubated in the dark for 10 minutes at room temperature. Any visible bubbles were removed with 100% ethanol vapor, then luminescence (RLU) was read on the Spectra Max M5e plate reader, using the 384-well opaque plate setting and SoftMax® Pro v5.4 software with an integration time of 50 milliseconds. To determine the effect of test articles on cell viability, raw RLU values were exported to Excel and percent survival was calculated as a percentage of vehicle control (0.5% DMSO in EMEM), where the vehicle control is set at 100%. Data was graphed in GraphPad Prism 9.
molecule,measurement,setting,value
B1,Max Cytotox,HT-29; INBRX-109 + 200 nM onvansertib,94.94%
same,EC50,HT-29; INBRX-109 only (Table 1),0.0116 nM
same,Max Cytotox,HT-29; INBRX-109 only (Table 1),71.42%
same,EC50,LS174T; INBRX-109 + 200 nM onvansertib,0.0907 nM
same,Max Cytotox,LS174T; INBRX-109 + 200 nM onvansertib,79.32%
same,EC50,LS174T; INBRX-109 only (Table 1),0.0106 nM
same,Max Cytotox,LS174T; INBRX-109 only (Table 1),59.68%
same,Max Cytotox,LS411N; INBRX-109 + 200 nM onvansertib,88.9%
same,EC50,LS411N; INBRX-109 only (Table 1),Unstable
same,EC50,SW1463; INBRX-109 + 200 nM onvansertib,0.00495 nM
same,Max Cytotox,SW1463; INBRX-109 + 200 nM onvansertib,73.74%
same,EC50,SW1463; INBRX-109 only (Table 1),0.066 nM
same,Max Cytotox,SW1463; INBRX-109 only (Table 1),38.14%
same,EC50,SW620,0.00478 nM
same,Max Cytotox,SW620,20.25%
same,Max Cytotox,SW837; INBRX-109 + 200 nM onvansertib,80.64%
same,EC50,SW837; INBRX-109 only (Table 1),0.00123 nM
same,Max Cytotox,SW837; INBRX-109 only (Table 1),6.43%
same,Max Cytotox at 1 nM,AsPC-1,14.5%
same,Max Cytotox at 1 nM,BxPC-3,51.3%
same,Max Cytotox at 1 nM,CFPAC-1,23.8%
same,Max Cytotox at 1 nM,Capan-1,86.9%
same,Max Cytotox at 1 nM,Capan-2,11.1%
same,Max Cytotox at 1 nM,HPAF-II,22.8%
same,Max Cytotox at 1 nM,HuP-T4,80.7%
same,Max Cytotox at 1 nM,KP4,7.8%
same,Max Cytotox at 1 nM,MIA PaCa-2,77.9%
same,Max Cytotox at 1 nM,PANC-1,32.6%
same,Max Cytotox at 1 nM,PL45,14.1%
same,Max Cytotox at 1 nM,PSN-1,91.9%
same,Max Cytotox at 1 nM,Panc 03.27,53.2%
same,Max Cytotox at 1 nM,Panc 05.04,97.0%
same,Max Cytotox at 1 nM,Panc 10.05,23.8%
same,Max Cytotox at 1 nM,SU.86.86,92.5%
same,Max Cytotox at 1 nM,SW-1990,54.7%
same,EC50,CAL-78; INBRX-109 + 2 μM AZD-5991,0.00393 nM
same,EC50,CAL-78; INBRX-109 only (Table 5),> 3.6 nM
same,EC50,CAL-78; INBRX-109 only (Table 7),unstable
same,EC50,CAL-78; INBRX-109 only (Table 9),0.0172 nM
same,EC50,CAL-78; INBRX-109 only (Table 11),0.029 nM
